The source of these data is article PMC5026590.

In assay [1] the target is RyR2-S2814D (CaMKII phosphomimetic), knock-in mouse (mouse (endogenous in ventricular myocytes)) (UniProt E9Q401). Briefly: FRET or BRET. A general note: In BRET a luciferase serves as donor, and the signal depends on an acceptor being close.
Assay [2] concerns the target RyR2-S2814A (non-phosphorylatable), knock-in mouse (mouse (endogenous in ventricular myocytes)) (UniProt E9Q401). Briefly: FRET or BRET.

Consider “fluorescent DPc10 peptide (F-DPc10; RyR2 residues 2460-2495) (from UniProt P30957 2460-2495)”, for which the fold faster binding (wash-in) vs. S2814A myocytes in assay [1] stood at 2 fold.

For orientation: Kd means a measure of binding affinity in units of concentration. High values mean a looser complex, low ones a tighter complex. As for “fluorescent calmodulin (F-CaM) (from UniProt P0DP23 1-149) (natural protein)”, the Kd amounted to 20 nM in assay [2] and 72 nM in assay [1].
